{"source": "patent US8357518B2", "about": "“Thermostable enzymes for the hydrolysis of mannan-containing polysaccharides” (The Board of Trustees of the University of Illinois, priority 2010, dated 2013)", "assay_in_all_cases": "Catalytic efficiency with oligosaccharides, HPAEC (Man5A-TM1)", "type_in_all_cases": "biochemical, Caldanaerobius polysaccharolyticus", "conditions_in_all_cases": "other: Man5A-TM1 0.3 μM, oligosaccharide 30 μM, citrate buffer 50 mM, pH 5.5, 5 min, triplicate", "key": {"[1]": {"substrate": "OC[C@H]1O[C@@H](O[C@H]2[C@H](O)[C@@H](O)[C@H](O[C@H]3[C@H](O)[C@@H](O)[C@H](O[C@H]4[C@H](O)[C@@H](O)[C@H](O[C@H]5[C@H](O)[C@@H](O)C(O)O[C@@H]5CO)O[C@@H]4CO)O[C@@H]3CO)O[C@@H]2CO)[C@H](O)[C@@H](O)[C@@H]1O", "method": "(§1) Cloning, expression, and purification of Man5A-TM1, Man5A-TM2 and Man5B. C. polysaccharolyticus was cultured in TYG medium and DNA was isolated from mid-log cultures and purified using the Qiagen DNeasy Blood and Tissue kit with an integrated RNase treatment step. The genome of C. polysaccharolyticus was partially sequenced by the W. M. Keck Biotechnology Center at the University of Illinois at Urbana-Champaign. A Newbler assembly was generated which is comprised of ½ plate of FLX PE 454 data and ½ plate of 8 kb paired-end GSFLX Titanium data using a Genome Sequencer instrument from 454 Life Sciences (Branford, Conn.). The partial genome sequence was uploaded onto the Rapid Annotation using Subsystem Technology (RAST) server (Aziz et al., BMC Genomics, 9:75, 2008). Auto-annotation of the C. polysaccharolyticus partial genome sequence identified ORF0760 as a gene predicted to encode a bifunctional β-D-mannanase/endoglucanase (Man5B). Man5A was previously identified in a recombinant phage library of C. polysaccharolyticus genomic DNA, which was screened for endoglucanase activity (Cann et al., J Bacteriol, 181:1643, 1999) and the full sequence of this gene was also identified in the partial genome sequence for C. polysaccharolyticus.\n(§2) The DNA sequence corresponding to man5B was amplified by the PicoMaxx high fidelity PCR kit using genomic DNA as the template with the primer set Man5B-Forward and Man5B-Reverse (Table 1-1). The primers were engineered to incorporate a 5′-[…] (SEQ ID NO: 54) extension in Man5B-F and a 5′-[…] (SEQ ID NO: 55) extension in Man5B-R, which facilitated subsequent directional cloning. The resultant man5B amplicon was then digested with T4 DNA polymerase exonuclease activity, annealed with a similarly digested pET-46b vector and introduced into E. coli JM109 by electroporation. Man5A-TM1 was amplified using genomic DNA as template with primers Man5A-TM1-F and Man5A-TM1-R (Table 1-1). The primer sets for Man5A-TM1 and Man5A-TM2 were designed to include 5′-NdeI and 3′-XhoI restriction sites for subsequent directional cloning. The resulting amplicons were then cloned into the pGEM-T vector via TA-cloning and subcloned in-frame with the hexahistidine (His6) encoding sequence of a modified pET-28a expression vector via its NdeI-XhoI polylinker site. The truncated protein Man5A-TM2 originally named ManA-SLH-CBD was cloned as described in a previous study (Cann et al., J Bacteriol, 181:1643, 1999). Expression of each of the resulting gene constructs yielded fusion proteins containing an N-terminal polyhistidine tag sequence to facilitate affinity purification via metal chelate chromatography. The resulting plasmid constructs pET46-Man5B, pET28a-Man5A-TM1, and pET-28a-Man5A-TM2 were sequenced to confirm the integrity of the cloned genes (W. M. Keck Center for Comparative and Functional Genomics at the University of Illinois at Urbana-Champaign).\n(§3) The plasmid constructs were then introduced into E. coli BL-21 CodonPlus (DE3) RIL competent cells by heat shock, and grown overnight in lysogeny broth (LB) agar medium supplemented with ampicillin (100 μg/mL) and chloramphenicol (50 μg/mL) at 37° C. After 12 h, single colonies were selected and used to inoculate fresh LB (10 mL) supplemented with the antibiotics above at the same concentrations, followed by culturing with aeration for 8 h at 37° C. The pre-cultures were then inoculated into fresh LB (1 L) supplemented with ampicillin and chloramphenicol and the cultures were incubated at 37° C. with vigorous aeration (225 rpm/min). The cultures were grown to an optical density of 0.3 at 600 nm, and the temperature was shifted to 16° C. and gene expression was induced by the addition of 0.1 mM isopropyl β-D-thiogalactopyranoside (IPTG). […]"}, "[2]": {"substrate": "OC[C@H]1O[C@@H](O[C@H]2[C@H](O)[C@@H](O)[C@H](O[C@H]3[C@H](O)[C@@H](O)[C@H](O[C@H]4[C@H](O)[C@@H](O)C(O)O[C@@H]4CO)O[C@@H]3CO)O[C@@H]2CO)[C@H](O)[C@@H](O)[C@@H]1O", "method": "as §1, §2, §3"}, "[3]": {"substrate": "OC[C@H]1O[C@@H](O[C@H]2[C@H](O)[C@H](O)[C@H](O[C@H]3[C@H](O)[C@H](O)[C@H](O[C@H]4[C@H](O)[C@H](O)C(O)O[C@@H]4CO)O[C@@H]3CO)O[C@@H]2CO)[C@@H](O)[C@@H](O)[C@@H]1O", "method": "as §1, §2, §3"}, "[4]": {"substrate": "OC[C@H]1O[C@@H](O[C@H]2[C@H](O)[C@H](O)[C@H](O[C@H]3[C@H](O)[C@H](O)[C@H](O[C@H]4[C@H](O)[C@H](O)[C@H](O[C@H]5[C@H](O)[C@H](O)C(O)O[C@@H]5CO)O[C@@H]4CO)O[C@@H]3CO)O[C@@H]2CO)[C@@H](O)[C@@H](O)[C@@H]1O", "method": "as §1, §2, §3"}, "[5]": {"substrate": "OC[C@H]1O[C@@H](O[C@H]2[C@H](O)[C@H](O)[C@H](O[C@H]3[C@H](O)[C@H](O)[C@H](O[C@H]4[C@H](O)[C@H](O)[C@H](O[C@H]5[C@H](O)[C@H](O)[C@H](O[C@H]6[C@H](O)[C@H](O)C(O)O[C@@H]6CO)O[C@@H]5CO)O[C@@H]4CO)O[C@@H]3CO)O[C@@H]2CO)[C@@H](O)[C@@H](O)[C@@H]1O", "method": "as §1, §2, §3"}}, "data": [{"protein": "Caldanaerobius polysaccharolyticus endo-β-mannanase Man5A truncation mutant Man5A-TM1, SEQ ID NO: 28 (Caldanaerobius polysaccharolyticus) (protein) AGTSGDGRFHVVGNKIVDPDGKDFIIKGVNIQGYRSWEKRSVLQDVHLIADVWKFNTVRLNCFIGQNNWGEGTGANNDIDAIIKAFTAKKVVVEIDLHDTTGYPPLSNPPPAPGQPSLDQAIAWFKELAAKYKDNPYVWFNTMNEPGSSTAPLDPQWKVANEEIIKAIRSTGADNIIVVDGWSYANEGIEQNTPTVDEKRSAVLTYGQDLLNADSAKNTIFAFHNYNEGDIQKKVEDYIDRANAKGLYVFMEEYGKDYSDAAKEGVKSGLQAVMNKGAGRIYWNWDGYDLYDLTSGTGRGSGWEINKTDGSKPTNLSWVGDKIWDDNHGITPTFDDQNPKVDLALERLIANNNGFKAGDKVQFTTFLRNSGDLPIGKDSKVVVKFYVDGVQLGDPVEISGGIAVGQRIPVTSPELTVSKTDFTVKAVIDSSSTYADGAEDAVIENNWIEAAFNSTAPSSGYELVVTGIKITPDTVKEGDYVQAQVTVANQGPEATPVTNIIGWFYVNGYYYTLDDAAKSCAEQDNVTLKPGESITLSTKVKYRAAAPFNFSFVLENLYADDQNQSNNSITVNVPVKMGEGGVNMVSNPGFEDGLDSWQDWQQDMSAVPEAAHNGALGLKIGGGKAAGGGQDIPLKPNTTYILGAWAKFDSKPAGTFDVVVQYHLKDANNTYVQHILNFNETDWTYKQLLFTTPDVFGSTPQLALWKGDTSKANLYVDDVYLVEVSNLIVNGTAENGMDGWPDWGYPVSAVPEAAYGGTKGFKLSGGKQAGMGQKVALKPNTTYILGAWGKFTAKPGTYCDVIVQYHLKDANNTYVQNILRFTETDWTYKQVVFTTPDAFGSDPEFVLWKDDASNADFYADNITLVEV", "values": [{"measurement": "kcat/Km", "setting": "[1]", "value": "9300 ± 2000", "unit": "M⁻¹ s⁻¹"}, {"measurement": "kcat/Km", "setting": "[2]", "value": "11000 ± 2000", "unit": "M⁻¹ s⁻¹"}, {"measurement": "kcat/Km", "setting": "[3]", "value": "17000 ± 4000", "unit": "M⁻¹ s⁻¹"}, {"measurement": "kcat/Km", "setting": "[4]", "value": "33000 ± 3000", "unit": "M⁻¹ s⁻¹"}, {"measurement": "kcat/Km", "setting": "[5]", "value": "(1.2 ± 0.2) × 10^2 mM^−1 s^−1"}]}]}
